Source: IntAct's records for PubMed 21572041

B1: C-type lectin domain family 2 member D (Homo sapiens), Q9UHP7-1 (parent)
chain: MHDSNNVEKDITPSELPANPGCLHSKEHSIKATLIWRLFFLIMFLTIIVCGMVAALSAIRANCHQEPSVCLQAACPESWIGFQRKCFYFSDDTKNWTSSQRFCDSQDADLAQVESFQELNFLLRYKGPSDHWIGLSREQGQPWKWINGTEWTRQFPILGAGECAYLNDKGASSARHYTERKWICSKSDIHV

Variants of: B1
Details: with klrb1_human KLRB1, Q12918
Sequence of klrb1_human KLRB1, Q12918 (Q12918 whole entry): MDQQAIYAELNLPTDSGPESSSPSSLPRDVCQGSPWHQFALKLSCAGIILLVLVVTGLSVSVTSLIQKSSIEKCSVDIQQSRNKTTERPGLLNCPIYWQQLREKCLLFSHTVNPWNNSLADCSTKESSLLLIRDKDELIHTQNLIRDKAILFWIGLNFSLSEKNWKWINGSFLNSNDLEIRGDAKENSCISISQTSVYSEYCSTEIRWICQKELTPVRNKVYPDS

| Variant | effect of a mutation on the interaction |
| --- | --- |
| MHDSNNVEKDITPSELPANPGCLHSKEHSIKATLIWRLFFLIMFLTIIVCGMVAALSAIRANCHQEPSVCLQAACPESWIGFQRKCFYFSDDTKNWTSSQRFCDSQDADLAQVESFQELNFLLRYKGPSDHWIGLSREQGQPWKWINGTEWTRQFPILGAGECAALNDKGASSARHYTERKWICSKSDIHV [Y165A] | decreasing interaction strength |
| MHDSNNVEKDITPSELPANPGCLHSKEHSIKATLIWRLFFLIMFLTIIVCGMVAALSAIRANCHQEPSVCLQAACPESWIGFQRKCFYFSDDTKNWTSSQRFCDSQDADLAQVESFQELNFLLRYKGPSDHWIGLSREQGQPWKWINGTEWTRQFPILGAGECAYLADKGASSARHYTERKWICSKSDIHV [N167A] | decreasing interaction strength |
| MHDSNNVEKDITPSELPANPGCLHSKEHSIKATLIWRLFFLIMFLTIIVCGMVAALSAIRANCHQEPSVCLQAACPESWIGFQRKCFYFSDDTKNWTSSQRFCDSQDADLAQVESFQELNFLLRYKGPSDHWIGLSREQGQPWKWINGTEWTRQFPILGAGECAYLNDEGASSARHYTERKWICSKSDIHV [K169E] | disrupting interaction strength |

Other lines, results leading:

| effect of a mutation on the interaction | Variant |
| --- | --- |
| disrupting interaction strength | MHDSNNVEKDITPSELPANPGCLHSKEHSIKATLIWRLFFLIMFLTIIVCGMVAALSAIRANCHQEPSVCLQAACPESWIGFQRKCFYFSDDTKNWTSSQRFCDSQDADLAQVESFQELNFLLRYKGPSDHWIGLSREQGQPWKWINGTEWTRQFPILGAGECAYLNDKGASSAEHYTERKWICSKSDIHV [R175E] |
| disrupting interaction strength | MHDSNNVEKDITPSELPANPGCLHSKEHSIKATLIWRLFFLIMFLTIIVCGMVAALSAIRANCHQEPSVCLQAACPESWIGFQRKCFYFSDDTKNWTSSQRFCDSQDADLAQVESFQELNFLLRYKGPSDHWIGLSREQGQPWKWINGTEWTRQFPILGAGECAYLNDKGASSARHYTEEKWICSKSDIHV [R180E] |
| disrupting interaction strength | MHDSNNVEKDITPSELPANPGCLHSKEHSIKATLIWRLFFLIMFLTIIVCGMVAALSAIRANCHQEPSVCLQAACPESWIGFQRKCFYFSDDTKNWTSSQRFCDSQDADLAQVESFQELNFLLRYKGPSDHWIGLSREQGQPWKWINGTEWTRQFPILGAGECAYLNDKGASSARHYTEREWICSKSDIHV [K181E] |

Variants of: B1
Details: with klrb1_human KLRB1, Q12918
Remark: another data set of the same source

| Variant | effect of a mutation on the interaction |
| --- | --- |
| MHDSNNVEKDITPSELPANPGCLHSKEHSIKATLIWRLFFLIMFLTIIVCGMVAALSAIRANCHQEPSVCLQAACPESWIGFQRKCFYFSDDTKNWTSSQRFCDSQDADLAQVESFQELNFLLRYKGPSDHWIGLSREQGQPWKWINGTEWTRQFPILGAGECAYLNDEGASSARHYTERKWICSKSDIHV [K169E] | increasing interaction strength |
